{
  "source": "patent US7960513B2",
  "about": "“Antibody against a human ADAM protease” (Monash University, priority 2004, dated 2011)",
  "molecules": {"B1": {"name": "ADAM10 [EEE-A] mutant: full-length ADAM10 with alanine substitutions of Glu573, Glu578 and Glu579 (protein)", "chain": "TTVAEKNTCQLYIQTDHLFFKYYGTREAVIAQISSHVKAIDTIYQTTDFSGIRNISFMVKRIRINTTADEKDPTNPFRFPNIGVEKFLELNSEQNHDDYCLAYVFTDRDFDDGVLGLAWVGAPSGSSGGICEKSKLYSDGKKKSLNTGIITVQNYGSHVPPKVSHITFAHEVGHNFGSPHDSGTECTPGESKNLGQKENGNYIMYARATSGDKLNNNKFSLCSIRNISQVLEKKRNNCFVESGQPICGNGMVEQGEECDCGYSDQCKDECCYDANQPEGKKCKLKPGKQCSPSQGPCCTAHCAFKSKTEKCRDDSDCAKEGICNGITALCPASDPKPNFTDCNRHTQVCINGQCAGSICAKHGLAACTCASSDGKDDKELCHVCCMKKMEPSTCASTGSVQWNKYFLGRTITLQPGSPCNDFRGYCDVFMRCRLVDADGPLARLKKAIFSPELYENIAEWIVAYWWAVLLMGIALIMLMAGFIKICSVHTPSSNPKLPPPKPLPGTLKRRRPPQPIQQPQRQRPRESYQMGHMRR", "modifications": "left off: small tags and cut ends", "notes": "full-length ADAM10 with alanine substitutions of Glu573, Glu578 and Glu579"}},
  "key": {"[1]": {"system": "HEK293 cells", "experiment": "Confocal imaging of co-cultured EphA3-diHcRed/ADAM10 and GFP-ephrin expressing cells", "format": "cell-based, human", "settings": "co-incubation with GFP-ephrin-A5 or GFP-ephrin-A2 cells for 40 min", "method": "FIG. 4. Mutation of acidic residues in the ADAM10 Cys-rich domain affects binding to EphA3/ephrin-A5 and cleavage of ephrin-A5. • A. In vitro binding of mutant ADAM10D+C to EphA3/ephrin-A5. ADAM10D+C[EEE-A] containing Alanine substitutions of Glu573, Glu578, Glu579 (lanes 1-4) or ADAM10D+C[RDD-A] (Ala substitutions of Arg525, Asp526, Asp527, lanes 5-8) were incubated alone (lanes 1, 5), or together with EphA3-Fc (lanes 2, 6), ephrin-A5-Fc (lanes 3, 7), or EphA3-Fc and ephrin-A5 (lanes 4, 8). Complexed proteins were extracted with Protein-A-Sepharose beads and analysed as in FIG. 2. • B. Binding of wild-type and mutant ADAM10ΔMP to EphA3 in cells. EphA3/293 cells were transfected with HA-ADAM10ΔMP or HA-ADAM10ΔMP [EEE-A]. Parental and transfected cells were treated for 10 min with or without pre-clustered ephrin-A5-Fc and lysed. Anti-HA and anti-EphA3 immunoprecipitates, and total cell lysates were analysed by Western blotting with indicated antibodies. • C. Ephrin-A5-Fc cleavage in cells expressing wt and 3A mutant ADAM10. EphA3/293 cells were transfected with full length, wild-type (wt) ADAM10, dominant-negative ADAM10ΔMP, or ADAM10 bearing alanine (3A) or 3 lysine (3K) substitutions of Glu573, 578, 579. Following exposure to clustered (+) or non-clustered ? ephrin-A5 Fc, cleaved ephrin was recovered and analysed by Western Blot as described in FIG. 1c. Parallel anti-HA blots of whole-cell lysates reveal the expression levels of ADAM10 constructs. • D. Model of ADAM protein modules and cleavage mechanism. Left, schematic representation of ADAM proteinases protein domain organization; right, schematic representation of the proposed interactions and positioning of ADAM10, EphA3, and Ephrin-A5 between interacting cells, leading to controlled ephrin-cleavage. • E. Ephrin cleavage from the cell surface is blocked by overexpression of 3A-mutant ADAM10. HEK293 cells were co-transfected with (red-fluorescent) EphA3-diHcRed and either wt ADAM10, ADAM10 bearing alanine (3A) substitutions at Glu573, Glu578, and Glu579, or dominant-negative ADAM10ΔMP. […]"}, "[2]": {"system": "HEK293 cells", "experiment": "Confocal imaging of pro-EGF shedding in co-cultured EGFR-GFP/ADAM10 and HA-pro-EGF expressing cells", "format": "cell-based, human", "settings": "co-incubation with HA-pro-EGF cells for 15 min", "method": "FIG. 5. Cleavage of cell surface pro-EGF by ADAM10 co-expressed with the EGF receptor requires the intact substrate recognition pocket of ADAM10. HEK293 cells transiently expressing EGFR-GFP and either wild type or 3A mutant ADAM10 (as indicated) were co-incubated with HEK293 cells expressing HA-tagged pro-EGF for 15 min. The cells were then washed, fixed and stained with antibodies against ADAM10 (Alexa^546, red) and HA (Alexa^647, cyan). Arrows indicate EGFR/3A Adam10-expressing cells unable to take up EGF from associated HA-pro-EGF expressing cells (stars); arrowheads indicate cells that have taken up EGF that over-express EGFR and wtAdam10 (bottom panels), or just EGFR (with endogenous Adam10), top panels.\nADAM-mediated ligand cleavage from the cell surface, also referred to as ‘shedding’ has been extensively described as mechanism that facilitates the release of the pro-forms of the EGF-receptor ligands (Blobel, 2005, supra). We were interested to see, if the here described substrate recognition site of ADAM10 would function also to recognise pro-EGF and regulate its shedding from the cell surface. We performed the same confocal imaging approach, using HEK293 cells transfected to express GFP-tagged EGF-receptor, which were co-cultured with cells expressing HA-tagged pro-EGF. […]"}},
  "data": [
    {"molecule": "B1", "values": [
      {"measurement": "ephrin cleavage from the cell surface and internalisation", "setting": "[1]", "result": "absent"},
      {"measurement": "ephrin cleavage from the cell surface and internalisation", "setting": "[1]; listed as 3A-mutant ADAM10", "result": "blocked"},
      {"measurement": "EGF shedding and uptake into EGF-receptor expressing cells", "setting": "[2]", "result": "dramatically reduced"}
    ]}
  ]
}
